Measured values reported in patent publication US20180327500A1 (SYMPHOGEN A S, published 2018).

T1: Mouse Blade 1-2
T1 construct: human/mouse chimera on transfected HEK293 cells; also called AA 25-162
T1 MET ECD-SV5-GPI fusion: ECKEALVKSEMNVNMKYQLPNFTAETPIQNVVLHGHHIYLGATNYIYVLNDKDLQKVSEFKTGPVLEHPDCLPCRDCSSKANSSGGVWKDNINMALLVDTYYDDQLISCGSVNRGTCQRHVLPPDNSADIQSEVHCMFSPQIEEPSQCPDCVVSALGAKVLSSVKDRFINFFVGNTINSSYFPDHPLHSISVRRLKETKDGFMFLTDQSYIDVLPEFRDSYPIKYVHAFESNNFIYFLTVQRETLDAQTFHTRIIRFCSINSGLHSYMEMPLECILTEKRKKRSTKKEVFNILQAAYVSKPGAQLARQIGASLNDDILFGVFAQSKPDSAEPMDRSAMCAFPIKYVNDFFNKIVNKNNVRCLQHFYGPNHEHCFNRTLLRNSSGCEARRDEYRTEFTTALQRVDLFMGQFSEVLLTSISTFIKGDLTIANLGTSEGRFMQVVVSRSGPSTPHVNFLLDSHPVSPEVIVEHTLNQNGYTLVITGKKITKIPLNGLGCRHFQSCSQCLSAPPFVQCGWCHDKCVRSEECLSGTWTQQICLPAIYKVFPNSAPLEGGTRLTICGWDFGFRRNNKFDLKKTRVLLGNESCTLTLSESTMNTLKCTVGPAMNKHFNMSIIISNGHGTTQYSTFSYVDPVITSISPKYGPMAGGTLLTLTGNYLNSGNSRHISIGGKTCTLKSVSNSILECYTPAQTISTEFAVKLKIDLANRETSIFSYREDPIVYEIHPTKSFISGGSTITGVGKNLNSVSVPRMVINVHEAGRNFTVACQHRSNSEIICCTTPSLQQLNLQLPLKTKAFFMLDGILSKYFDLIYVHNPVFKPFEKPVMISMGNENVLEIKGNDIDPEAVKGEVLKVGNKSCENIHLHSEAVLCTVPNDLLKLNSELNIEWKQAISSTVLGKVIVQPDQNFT

T2: Mouse blade 3
T2 construct: human/mouse chimera on transfected HEK293 cells; also called Mouse blade 3-IPT4
T2 MET ECD-SV5-GPI fusion: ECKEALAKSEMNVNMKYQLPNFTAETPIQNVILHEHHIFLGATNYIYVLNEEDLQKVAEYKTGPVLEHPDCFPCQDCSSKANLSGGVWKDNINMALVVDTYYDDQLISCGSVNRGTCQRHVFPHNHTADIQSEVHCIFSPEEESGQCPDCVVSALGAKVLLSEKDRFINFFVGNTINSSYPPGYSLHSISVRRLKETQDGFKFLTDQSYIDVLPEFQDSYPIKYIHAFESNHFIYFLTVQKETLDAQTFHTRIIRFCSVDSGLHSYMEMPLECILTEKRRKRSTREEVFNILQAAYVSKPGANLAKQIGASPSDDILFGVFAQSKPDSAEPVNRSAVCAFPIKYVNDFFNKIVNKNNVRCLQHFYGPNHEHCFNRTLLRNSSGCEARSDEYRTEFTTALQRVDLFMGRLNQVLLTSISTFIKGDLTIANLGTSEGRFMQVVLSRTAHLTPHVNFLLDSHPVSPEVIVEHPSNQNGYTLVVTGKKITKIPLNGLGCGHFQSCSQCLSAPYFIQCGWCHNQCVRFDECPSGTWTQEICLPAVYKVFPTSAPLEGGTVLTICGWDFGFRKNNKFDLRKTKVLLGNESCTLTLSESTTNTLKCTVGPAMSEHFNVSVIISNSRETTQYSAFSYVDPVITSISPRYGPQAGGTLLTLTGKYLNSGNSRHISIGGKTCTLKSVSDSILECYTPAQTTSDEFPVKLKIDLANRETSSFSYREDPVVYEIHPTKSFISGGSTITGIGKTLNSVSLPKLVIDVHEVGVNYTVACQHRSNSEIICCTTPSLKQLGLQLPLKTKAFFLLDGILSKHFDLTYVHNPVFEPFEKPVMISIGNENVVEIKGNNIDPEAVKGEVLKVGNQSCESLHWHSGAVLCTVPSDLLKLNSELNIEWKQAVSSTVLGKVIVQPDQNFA

B1: humanized antibody 9338 (antibody, human IgG1, kappa, V domains shown)
VH: QVQLVQSGAEVKKPGSSVKVSCKASGYTFTSYWMHWVRQAPGQGLEWMGYINPSSGHIENNQKFKDRVTITADKSTSTAYMELSSLRSEDTAVYYCARGRFAYWGQGTLVTVSS
VL: EIVLTQSPATLSLSPGERATLSCSASSSVSSGYLYWYQQKPGQAPRLLIYSTSNLASGIPARFSGSGSGTDFTLTISSLEPEDFAVYYCHQWSSYPFTFGSGTKLEIKR
notes: also called Hu9338; hu9338
B2: humanized antibody 9006 (antibody, human IgG1, kappa, V domains shown)
VH: QVQLVQSGSELKKPGASVKVSCKASGYTFTNFRMNWVKQAPGQGLKWMGWINTYTGEPTYVDDLKGRFVFSLDTSVSTAYLQISSLKAEDTAVYYCARKGIARAMDYWGQGTTVTVSS
VL: DIVMTQSPDSLAVSLGERATINCKSSQSLLDSGNQKNYLAWYQQKPGQPPKLLIFGASTRESGVPDRFSGSGSGTDFTLTISSLQAEDVAVYYCQNDHSYPYTFGQGTKLEIKR
notes: also called Hu9006; hu9006

Tests used:
Mouse Blade 1-2 = target: T1, Mouse Blade 1-2; assay: flow cytometry on transfected HEK293 cells;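 also: antibodies applied at 50 µg/ml, binding called specific when fluorescence exceeds the mean signal on a negative control chicken or mouse MET construct plus four SD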
Protocol: (§1) Cut-off values defined as the average fluorescence signal of all antibodies tested at 50 μg/ml to the negative control chicken or mouse MET construct+four standard deviations were employed to discriminate background binding from specific binding for the domain exchange or blade exchange constructs.

Mouse blade 3 = target: T2, Mouse blade 3; assay: flow cytometry on transfected HEK293 cells;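 also: antibodies applied at 50 µg/ml, binding called specific when fluorescence exceeds the mean signal on a negative control chicken or mouse MET construct plus four SD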
Protocol: as §1

binding result (Mouse Blade 1-2)	binding result (Mouse blade 3)	Binder
no binding (tested: 50 µg/ml)		B1
	no binding (tested: 50 µg/ml)	B2
